Among the data in the Human Domainome abundance scans (Beltran et al. 2025) are abundance fitness values, retold here.

± gives the uncertainty stated by the source.

The chains are these.
B1: Zinc finger homeobox protein 3, residues 2147 to 2202; numbered along this chain, Q15911 (parent)
chain: RPRTRITDDQLRVLRQYFDINNSPSEEQIKEMADKSGLPQKVIKHWFRNTLFKERQ

In this series the parent is B1. Description: abundance fitness (aPCA) (normalised: wild type 0, dead -1); higher = more abundant; growth selection in yeast, the domain comes from the species named. The conditions noted are these: Homo sapiens.
In the case of RPRTRITDDQLRVLRQYFDINNSPSEEQDKEMADKSGLPQKVIKHWFRNTLFKERQ [I29D], the abundance fitness is -1.17 ± 0.26. Turning to RPRTRITDDQLRVLRQYFDINNSPSEEQSKEMADKSGLPQKVIKHWFRNTLFKERQ [I29S], the abundance fitness is -0.491 ± 0.093.

On to RPRTRITDDQLRVLRQYFDINNSPSEEQQKEMADKSGLPQKVIKHWFRNTLFKERQ [I29Q], for which the abundance fitness was -0.225 ± 0.12. With RPRTRITDDQLRVLRQYFDINNSPSEEQEKEMADKSGLPQKVIKHWFRNTLFKERQ [I29E] the figure was -0.334 ± 0.095; with RPRTRITDDQLRVLRQYFDINNSPSEEQHKEMADKSGLPQKVIKHWFRNTLFKERQ [I29H], -0.282 ± 0.19; with RPRTRITDDQLRVLRQYFDINNSPSEEQWKEMADKSGLPQKVIKHWFRNTLFKERQ [I29W], -0.387 ± 0.1. For the variant RPRTRITDDQLRVLRQYFDINNSPSEEQAKEMADKSGLPQKVIKHWFRNTLFKERQ [I29A], the abundance fitness was -0.476 ± 0.078.

Regarding RPRTRITDDQLRVLRQYFDINNSPSEEQKKEMADKSGLPQKVIKHWFRNTLFKERQ [I29K], the abundance fitness was -0.634 ± 0.13.

As to RPRTRITDDQLRVLRQYFDINNSPSEEQNKEMADKSGLPQKVIKHWFRNTLFKERQ [I29N], the abundance fitness was -0.44 ± 0.13.

RPRTRITDDQLRVLRQYFDINNSPSEEQYKEMADKSGLPQKVIKHWFRNTLFKERQ [I29Y]: the abundance fitness was -0.189 ± 0.25. As to RPRTRITDDQLRVLRQYFDINNSPSEEQMKEMADKSGLPQKVIKHWFRNTLFKERQ [I29M], the abundance fitness was -0.008 ± 0.1. As for RPRTRITDDQLRVLRQYFDINNSPSEEQRKEMADKSGLPQKVIKHWFRNTLFKERQ [I29R], the figure is -0.507 ± 0.073; as for RPRTRITDDQLRVLRQYFDINNSPSEEQGKEMADKSGLPQKVIKHWFRNTLFKERQ [I29G], -0.827 ± 0.082; as for RPRTRITDDQLRVLRQYFDINNSPSEEQTKEMADKSGLPQKVIKHWFRNTLFKERQ [I29T], -0.109 ± 0.12. On to RPRTRITDDQLRVLRQYFDINNSPSEEQLKEMADKSGLPQKVIKHWFRNTLFKERQ [I29L], for which the abundance fitness was 0.09 ± 0.079. As for RPRTRITDDQLRVLRQYFDINNSPSEEQPKEMADKSGLPQKVIKHWFRNTLFKERQ [I29P], the figure is -0.838 ± 0.17.

In the case of RPRTRITDDQLRVLRQYFDINNSPSEEQCKEMADKSGLPQKVIKHWFRNTLFKERQ [I29C], the abundance fitness is -0.279 ± 0.14.

Turning to RPRTRITDDQLRVLRQYFDINNSPSEEQIDEMADKSGLPQKVIKHWFRNTLFKERQ [K30D], the abundance fitness is -0.155 ± 0.11. As for RPRTRITDDQLRVLRQYFDINNSPSEEQIGEMADKSGLPQKVIKHWFRNTLFKERQ [K30G], the figure is -0.188 ± 0.069; as for RPRTRITDDQLRVLRQYFDINNSPSEEQIREMADKSGLPQKVIKHWFRNTLFKERQ [K30R], -0.193 ± 0.072. Regarding RPRTRITDDQLRVLRQYFDINNSPSEEQIQEMADKSGLPQKVIKHWFRNTLFKERQ [K30Q], the abundance fitness is -0.323 ± 0.11.

In the case of RPRTRITDDQLRVLRQYFDINNSPSEEQILEMADKSGLPQKVIKHWFRNTLFKERQ [K30L], the abundance fitness is -0.239 ± 0.088. As for RPRTRITDDQLRVLRQYFDINNSPSEEQIPEMADKSGLPQKVIKHWFRNTLFKERQ [K30P], the figure is -0.679 ± 0.14; as for RPRTRITDDQLRVLRQYFDINNSPSEEQINEMADKSGLPQKVIKHWFRNTLFKERQ [K30N], -0.637 ± 0.2; as for RPRTRITDDQLRVLRQYFDINNSPSEEQIMEMADKSGLPQKVIKHWFRNTLFKERQ [K30M], -0.107 ± 0.11.

As for RPRTRITDDQLRVLRQYFDINNSPSEEQIIEMADKSGLPQKVIKHWFRNTLFKERQ [K30I], the abundance fitness was -0.133 ± 0.15.

As for RPRTRITDDQLRVLRQYFDINNSPSEEQIAEMADKSGLPQKVIKHWFRNTLFKERQ [K30A], the abundance fitness was -0.006 ± 0.081. Turning to RPRTRITDDQLRVLRQYFDINNSPSEEQICEMADKSGLPQKVIKHWFRNTLFKERQ [K30C], the abundance fitness was -0.217 ± 0.12.

As for RPRTRITDDQLRVLRQYFDINNSPSEEQIFEMADKSGLPQKVIKHWFRNTLFKERQ [K30F], the abundance fitness is -0.264 ± 0.16.

Turning to RPRTRITDDQLRVLRQYFDINNSPSEEQISEMADKSGLPQKVIKHWFRNTLFKERQ [K30S], the abundance fitness was -0.205 ± 0.092. With RPRTRITDDQLRVLRQYFDINNSPSEEQIWEMADKSGLPQKVIKHWFRNTLFKERQ [K30W] the figure was -0.537 ± 0.099; with RPRTRITDDQLRVLRQYFDINNSPSEEQITEMADKSGLPQKVIKHWFRNTLFKERQ [K30T], -0.061 ± 0.1. With RPRTRITDDQLRVLRQYFDINNSPSEEQIHEMADKSGLPQKVIKHWFRNTLFKERQ [K30H] the figure was -0.161 ± 0.14. As for RPRTRITDDQLRVLRQYFDINNSPSEEIIKEMADKSGLPQKVIKHWFRNTLFKERQ [Q28I], the abundance fitness is -0.033 ± 0.13.

Turning to RPRTRITDDQLRVLRQYFDINNSPSEEWIKEMADKSGLPQKVIKHWFRNTLFKERQ [Q28W], the abundance fitness was -0.642 ± 0.086. In the case of RPRTRITDDQLRVLRQYFDINNSPSEERIKEMADKSGLPQKVIKHWFRNTLFKERQ [Q28R], the abundance fitness is -0.221 ± 0.065. With RPRTRITDDQLRVLRQYFDINNSPSEEKIKEMADKSGLPQKVIKHWFRNTLFKERQ [Q28K] the figure was -0.327 ± 0.12; with RPRTRITDDQLRVLRQYFDINNSPSEEYIKEMADKSGLPQKVIKHWFRNTLFKERQ [Q28Y], -0.385 ± 0.13; with RPRTRITDDQLRVLRQYFDINNSPSEEFIKEMADKSGLPQKVIKHWFRNTLFKERQ [Q28F], -0.562 ± 0.15. With RPRTRITDDQLRVLRQYFDINNSPSEEEIKEMADKSGLPQKVIKHWFRNTLFKERQ [Q28E] the figure was -0.102 ± 0.096; with RPRTRITDDQLRVLRQYFDINNSPSEEVIKEMADKSGLPQKVIKHWFRNTLFKERQ [Q28V], -0.064 ± 0.076; with RPRTRITDDQLRVLRQYFDINNSPSEEDIKEMADKSGLPQKVIKHWFRNTLFKERQ [Q28D], -0.278 ± 0.14.

As to RPRTRITDDQLRVLRQYFDINNSPSEEMIKEMADKSGLPQKVIKHWFRNTLFKERQ [Q28M], the abundance fitness is -0.168 ± 0.1. On to RPRTRITDDQLRVLRQYFDINNSPSEEHIKEMADKSGLPQKVIKHWFRNTLFKERQ [Q28H], for which the abundance fitness is -0.058 ± 0.13. On to RPRTRITDDQLRVLRQYFDINNSPSEEGIKEMADKSGLPQKVIKHWFRNTLFKERQ [Q28G], for which the abundance fitness was -0.209 ± 0.066. As to RPRTRITDDQLRVLRQYFDINNSPSEECIKEMADKSGLPQKVIKHWFRNTLFKERQ [Q28C], the abundance fitness was -0.423 ± 0.089. As for RPRTRITDDQLRVLRQYFDINNSPSEENIKEMADKSGLPQKVIKHWFRNTLFKERQ [Q28N], the figure is -0.171 ± 0.14.
